Laboratory results as given in patent US20050008642A1.

Target: IGF-IR on cells (HT29, NCI H322M human tumor cells; 3T3 cells transfected with IGF-IR) (human) (UniProt P08069)
Test: cell-based or functional assay

Substance: αIR3 (antibody)
- Akt/PKB phosphorylation in the absence of IGF-I (Western blot): > 5 nM
